Test results as given in paper PMC12350162 (Nature, 2025).

Molecular target: the molecule itself
Experiment: cryo-EM structure; 1-MDa fraction of the Superose 6 Increase step, 1 mg/ml, frozen anaerobically at once after purification; Titan Krios G3i, K3; focused maps of Hdr(ABC)2 and of the Elp arm in two conformational states

B1: heterodisulfide reductase HdrABC (complex)
chain 1: MAEEKKETMEEPKIGVYVCHCGVNIGGVVDVEAVRDYAAKLPNVVIAKDYKYYCSDPGQLEIQKDIKELGINRVVVAACSPRLHEPTFRRCVEEAGLNQFLFEFANIREHDSWVHMDNPEGATEKAKDLVRMAVAKARLLEPLEASKVSVDDKALVIGGGVAGIQAALDLADMGFKTYMVEKRPSISGRMGQLDKTFPTLDCSMCILAPKMVDVGKHDNIELITYAEVKEVDGYIGNFKVKIEKKPRYIDEELCTGCGSCVEVCPIEMPNYFDEGIGMTKAVYIPFPQAVPLCATIDKDYCIECMLCDEVCERGAVKHDQEPEEIEIEVGTIIVATGYDAYDPTEKLEYGYGRHTNVITGLELERMINASGPTDGKVLKPSDGEKPKRVAFIHCVGSRDEQIGKPYCSRVCCMYIMKNAQLIKDKMPDTEVTLYYMDIRAFGKGFEEFYKRSQEKYGIKFIRGRPAEVIENPDLTLTVRSEDTLLGKVTEYDYDMVVLGVGLVPPEGAETLRQTIGLSKSADGFLMEAHPKLRPVDTLTDGVYLAGVAQGPKDIPDAVAQASGAAARAAIPMVKGEVEIEPIIAVTDSDVCGGCEVCIELCPFGAISIEEGHANVNVALCKGCGTCVAACPSGAMDQQHFKTEQIMAQIEAALNEPASK
chain 2: not shown
chain 3: MTLLQREENIIRKGNIDKEFSEKIKAAGGDSLEYCFQCGTCTGSCPSGRRTPYRVRQIIRKANVGLKDEIISDPTLWMCTTCYSCQERCPRKVKIVDVVKLARNEAAKAGFMAPAHKAVGSFVIKTGHGVPINDATMELRKAVGLGELPPTTHQFPEALEEVQKIIKATGFDQLIGYNWETGELE
notes: also called Hdr(ABC)2; (HdrABC)2
stoichiometry N: 2
